Assay: soluble on expression in E. coli; label from the status in PepcDB or PDB records

Sequence	soluble on expression in E. coli
MDIKIIKDKKNPLLNRRELDFIVKYEGSTPSRNDVRNKLAAMLNAPLELLVIQRIKTEYGMQESKGYAKLYEDADRMKQVEQEYVLKRNAVPGSETEGEEALEHHHHHH	soluble
MGSDKIHHHHHHAREAEFKKIKESWTLQADGTQVYRQSKVLTLYTHTAMNRTYGESFITYDPRYQTLQIHESYTRQKDGNIVKTPANALVEVLPSAAANAPAFNALREMVVVHTGLELGATIYLDYSITTKPGYLPGIQICRLLEHSSPVKEYEISITVPRGQHLEYALNNHKEKASVTESEGMKQVSWTLKNLPALSREPQVSVIGGDLPLLTATTEEKPLSFLTSQWQPEGDAGIRALAGKLTAGAKDDKEKVTAIRDYVIDNLYYSSLPLAESGYRIRPAAEVIRSAYGTEAEKANLMAALLKAAGLKAGIGAVCAPSENTASLGVGSIRELFVWTDAGGSQQALSLKGKTPSAVSWQKDYAYVASLTQPFELNLPPVTLRKDYALQPDAANAKDGYLVFTLPVERGSLAGSQYVRFNSKRTSNLLLPGLADESFTYTVDTPAGMEPVTRPMEKKMDNAVGTLTISIRPEGAKTRVIRSLKLKKQMIRPADYAAFRQLMTEYGAVDGLTLVYRKPLP	not soluble
MAAQKKIPLRKCVVTGEMKPKREMVRIVRSKEGEVSIDPTGKKAGRGAYITLDPECILQAKKKNILARHLKADIDDAIYDELLALAEKEKQAGHEA	soluble
MGSDKIHHHHHHMTAPMPNLGAVFDTVDPAMAHLAARIDRLILAIDAALTRQLNAILAASEFRALEARWRALDRVLTHAGRDGQVIVRILNVSWRALSRDLDRAVEFDQSHLHKLVYDGEFGMPGGLPFGVLVADYEVSATTDRARGDQVETLSRLAAVAAAAFCPIMLGAAPDLLGVDDFDQIAPYTDLTDAEGRRADPPMIRWRALRDRDDARFIGLVAPRIVLRGPRTRLSPTRADGFTFDEDPHRILSVAGSFAFATTVIAAFRASGWFAAIRGAAQDTDGGGRVAGWPGHDLGTDGHNLSRQSPATLRLTAAQEDALIARGIVPLSSLPLTDEAVFNANPSLHRPTRYDSPVASENARISAMLQYVLCTSRFAHYLKVMMREAIGSVAPPDVIQGHLDDWLRGYCLGNEDAGAELKAEYPLRNAGVEVTPIPGKPGAFAARIHLQPHFQLDDISTSFHLVSEAPAGLERTSA	not soluble
MGSDFDHLVNSLSDVELLNLFIQSCSQTTINGVPVPRFPPEEIQKQFVGASYEHALYEAYLFYRHIKEYAQNLGVPLNKESKVLDFGCGWGRIIRFLFKDASDQNLLGIDVDPAMITLCNETLGRGIYKTASPHPPVEFISDNSLDIIFAYSVFSHLSEATAENWVKEFSRVLRPGGIFIATTQARYFLDFCQQFQEHPELIQTGWHKTLSQAFPDIHRAISDYENGKFVHSPTGAGDVRNSSFYGETVIPRTYIENHYEKYLKLQDFFDDVNRLPQALFVLQKILEHHHHHH	soluble
MAHHHHHHMSIYCRLASPPVFLRALHTVSVSRDGWATVVFTDSHVVLHVEGTDENMTATCTLPKNLFAEYAVVETRFALHIPTLIDALLMLG	not soluble
GPHMSVSESAVFAYESSVHSTNVLLSLNDQRKKDVLCDVTVLVEGQRFRAHRSVLAACSSYFHSRIVGQTDAELTVTLPEEVTVKGFEPLIQFAYTAKLILSKDNVDEVCRCVEFLSVHNIEESCFQFLKFKFLDSTS	soluble
MQKGVYIMNSTSSIITIGREYGSGGRQIGQEVAKYFGIKCYDKELLEHAANDSGICKELFEHHDEKPTNSFLYSLVMDTYSFGYSSSGFSDMPMNHKIFLAQFDAIKKLAGEGPCVMVGRCADYALADWNDCFSIFVHADLDWRINRIASKHGKTPKEAKDMITKTDKSRASYYNYYTNKKWGAARSYNLCIDSGKLGIDYATEAIIESIKIFDRTKISK	not soluble
MGHHHHHHSHMASPSKAVIVPGNGGGDVTTHGWYGWVKKELEKIPGFQCLAKNMPDPITARESIWLPFMETELHCDEKTIIIGHSSGAIAAMRYAETHRVYAIVLVSAYTSDLGDENERASGYFTRPWQWEKIKANCPYIVQFGSTDDPFLPWKEQQEVADRLETKLHKFTDCGHFQNTEFHELITVVKSLLKVPA	not soluble
MGSDKIHHHHHHAASEAEYGKVSKAWTLHADGSQEYRSSMELTLFTHTAMNSTYGESFIVYNPDFQTLKIHSSYTRQKDGTIVKTPDNAFVEVLPRFAADAPAYNQLKEMVVVHTGLELGATIYLDYSIITKPGYYPALDINERLQETSPVKECKVSISVPEGTPLACGLYGSPVKAVEESHDGIKEVHWTLRNIPASSREAFQPKNREASPHLVASTYPSGKAALATLDKRLKESQGYESKTFAQFLTDKSGNEQEKVNIIRDHILNNLSTCPIPMAMTGYTVRDIDTVLRSAYGTPLEIAQLLNVMLNAAGIPSEVLAVYPGHLDTDACGLAAIQTLAVKATVDGKDQYLSASPLTNRGGLDKVVSLSGTSIEIETTPIQIKESRSVAISADQAKDGFAICVLPAISAGIDSWGMSALNSKRSNLFELPSLIREEVTYTVTPAEGMKLQTSTQEQVISKPFGKVTRTITPRGNTIEVVRTIELNKQQFTPAEYSDVRSLIHEWTNPDNRVLLFSL	not soluble
MRELVVIFGLSGSGKSFLASILHEKCGYEWLRSDVIRKQLAGLKPEESAKADYGKGIYTKEITKKVYEEMVKRAKELIDRGKKVVLDATFIKRWQRELVLKNFKDPFFILAFAPEEVIKERLKSRKDVSDADWNIYLKQKEEFEAPEEIDYCVINTNKSKEELESRLKKLLGCQLK	not soluble
MSNANQKITTFLMFEGKAEEAMNFYTSLFDQSEIVSISRYDENGPGKEGTVIHATFTLNGQEFMCIDSYVNHNFTFTPAMSLYVTCETEEEIDTVFHKLAQDGAILMPLGSYPFSKKFGWLNDKYGVSWQLTLAE	soluble
MNDFSLELPVRTNKPRETGQSILIDNGYPLQFFKDAIAGASDYIDFVKFGWGTSLLTKDLEEKISTLKEHDITFFFGGTLFEKYVSQKKVNEFHRYCTYFGCEYIEISNGTLPMTNKEKAAYIADFSDEFLVLSEVGSKDAELASRQSSEEWLEYIVEDMEAGAEKVITEARESGTGGICSSSGDVRFQIVDDIISSDIDINRLIFEAPNKTLQQGFIQKIGPNVNLANIPFHDAIALETLRLGLRSDTFFLLEHHHHHH	not soluble
MNNQTMTFTPEQLRKHAQEMLRHAEQLEKTGITKDAIRKDMVPALRELMQAKHRAQKAVDELVDCVAELETRVGKFEKLVQEALR	not soluble
GHMYAIAEDTLPARVLKELLLYRRRYPEHRQSASEADEIRRIEQVQLPRIAAFIEAGEPIEFVLPAFPAKSPNPGKVLDSRPDMAERLSLSFLNHLCQRIQLFYAPGAKITVCSDGRVFGDLVRIGDAHISAYQDALRLMIEEIGATHIGVFNLEDVRAFEAQRDNHEQLRQLLIGGYAEPLESIRETLLASEEGLLLYRAITRFLYEDGLTPDYQGSKTALQRDAKERAYGVIQRSWAWGALLADQFPRAIRLSIHPQPADSLKFGIHMMPTRDDWLTPWHGVAVNTEDRFVLMKRSEVLELGGELVQINGQPSHYRLPARAARRAAVA	soluble
MQTLILMAYIKRLVSEGKHASLREAYYANKHTVPGTRENTFEDQSESDPIIEDLERMLGVLREEMHITADRRGYIYGDIVIKDGEDEFNASKLGTGGWAVPGTVEHIQFPEINVDYVLVVETAAMADRLIEEKYPKRENCLIVATQGQASRGVRRLIHRLHYEEGLPIIVFTDGDPYGWYIYSTIKRGSINLAYLSEKLATPDAKFVGMTMDDIKEYNLENVTEKLKGIPPDKKGGPTGDYKRLIEELNYPWFQDKEWQRQLKLALKWGVRIEQQALANKSLEFVAKEYLPEKIREGKLLP	soluble
MPFAHKVVMRTALYWEPLEDGKVKCKLCPLNCIINPEKRGSCKVRINIDGKLYTLNYGKVSSIALDPIEKKPLFHFWPGSCAFSIGTVGCNMHCKHCQNWEISQADESFPYLQDATPESIVRLARHYECESIAYTYNEPTIWYEFVLDTAKLAKKEGLNNILVTNGYINEEPFRELAKYIDAMNIDIKAFNDKFYMKISSVPSGEPSRRTAVIAKKEFGIHVELTYLIIPTLNDNEEEIRRFARWVVEELGDDTPVHFSRFFPHYKLLNLPPTPIQTLEKAYKIAKEEGLKFVYLGNVPGHEGENTYCPRCGKLLIERWGFEILRYEIKDGKCKYCGEQIPIVGEYQRKTYRGMWW	not soluble
MSHPVVIKENMTVYDAICTIFLEDVSTLFITNENNDFVGVCSRKDLLRASMIGEDIHTMPISVNMTRMPHVSYLKEQELVIYAANQMIDKEIDSLPIVRPKENDKFEVIGRISKTTITKLFVSLFKE	not soluble
SRPVFAAKPDNEAIIDAQMKKPKVPVHAIATASHPMIRFIGHPEEQKNYDFFVPWLSKLPQWIAEGKQPYVMIHTADNIIAPELAANIYKNLQNHVALPDLAPFPANDGNSQLQMF	not soluble
MEPRVTQRKRPLDGCMGKITGITSDILKYDHKCFKLSLPAKFPEVCGSDEVFPDPDLLHVLPVAGSLQQSIDQCCLQLESLCRPGLLCAHPTLLFKLHSSMKNRPFFSLIYTYVKKTQQVRKRDRKPRGQVAAGPNPTSVMLEHHHHHH	soluble
GPGSMSFPKEWTDTWNLFDDRRSGSVTHSDVKHIIRSLGRRYTEAEFNELLHDIPDPIPYQSFVEIMQKPYNGPTEDDLRTALRAFDGNDSGQLKLSELITLLTSLGEKMPEAEVKQLLSEVHTNEDGRVNIDDLARFLCTPLPTTQPDIAELQKQLAGIS	soluble
MEVDPGSDDVEADRETRAQKLKLKRNVKFRAQMRRFDEYCGVTNLTVDDLNWPLISGIPLQRQRLTGATYYDDSLLDQNPWDEFSIDRFLEITSIQLITAGAGYERNDEITRFVFQRTMKTIVTYCNFMYDLARRNGKVQITRFELQDLIHRDEFRFYMYFRQFLPNPDPNCTAFSNHYTSLLHTLYFNIPGMPQFWNNSQMYNYAATRGQRLVQNIAAFYPPEYFWNEDESKYHTTFVVPRGTEFSKFYARRFHEALGMPPLENEIITVLDWLAKLCILEIVYHTTIWCDITGFGGLPRIEHYRLAMENVEDIIFDLAIDDFSISRLQLQISPFEISRYSPLDVSGYYETIKRKKDIEEYQNRFYEVHYSDDVRIMNVYATDCSRKR	not soluble
MAIEIKLETPRQEAVLRLIDLSNAYMASLYPAESNHLVDIGALEKDNVSFFVARHDGRVVGCGALVEAGDGTAEVKRMFVDPEARGLRIGKLIMDTLVARGTELGLSAIRLETGISQPEAIGLYRKEGFVEIEAFAPYKPDPLSLFMERAL	not soluble
MPESYWEKVSGKNIPSSLDLYPIIHNYLQEDDEILDIGCGSGKISLELASLGYSVTGIDINSEAIRLAETAARSPGLNQKTGGKAEFKVENASSLSFHDSSFDFAVMQAFLTSVPDPKERSRIIKEVFRVLKPGAYLYLVEFGQNWHLKLYRKRYLHDFPITKEEGSFLARDPETGETEFIAHHFTEKELVFLLTDCRFEIDYFRVKELETRTGNKILGFVIIAQKLLEHHHHHH	soluble
MYKVDSPDAVDFINHQEIIETLEYARTHRNDRELIRNLIEKARLCKGLTHREAAILLECAEEDLTKEIFHLAKEIKQKFYGNRIVMFAPLYLSNYCVNGCVYCPYHLKNKTIIRKKLTQEEICREVIALQDMGHKRLALEAGEDPVRNSIDYILESIRTIYSIHHKNGAIRRVNVNIAATTVENYRKLKDAGIGTYILFQETYHKENYEQLHPTGPKSNYAYHTEAMDRAMQGGIDDVGMGVLFGLNTYRYDFVGLLMHAEHLEAVYGVGPHTISVPRICSADDINAEDFENAISDEIFQKIVAVIRISVPYTGMIISTRESQKTREKVLDLGISQISGGSRTSVGGYAEAETPEENSAQFDVSDTRTLDEVVNWLLKLGYIPSFCTACYRAGRTGDRFMSLVKSGQIANCCSPNALITLQEYLEDYASEETKARGVAMIKQEMQHIPNPKIRERALENLKQIAAGERDFRF	not soluble

— the DeepSol protein solubility set
